Where two headings read alike, the source gives them in different places.
Experiments:
KOD-plus DNA polymerase = biological target: T1, KOD-plus DNA polymerase (Thermococcus kodakarensis, UniProt P77933, DEL407-766/DEL853-1389); format: biochemical, Thermococcus kodakaraensis KOD1; details: 2 mM potassium oxalate, FIG. 14
T1 construct: purchased Toyobo
Protocol: Oxalate ion and DMSO were investigated for their synergistic effectiveness for hot start enzyme in amplification of a target DNA which is difficult to amplify by usual PCR, using a KOD-plus DNA polymerase, i.e., hot start enzyme. Potassium oxalate was added to the PCR buffer supplied with KOD-plus (TOYOBO CO., LTD.) to attain a final concentration of 2 mM. Also used were 0.2 mM dNTPs and […] of a pair of primers of SEQ ID Nos:18 and 19, and 1.0 U KOD-plus DNA polymerase. 0.5 μL of cDNA obtained by reverse transcription of 500 ng of total RNA derived from human cell line K562 with ThermoScript (Invitrogen) was used as a template. This reaction mixture was subjected to PCR by using GeneAmp2400 (PE Applied Biosystems) to investigate the influence on the PCR results of varying the concentration of DMSO. The PCR conditions were as follows: 1 preliminary reaction of 94° C. for 2 minutes, and then 40 cycles of 94° C. for 15 seconds, 60° C. for 30 seconds and 68° C. for 9 minutes.

KOD DNA polymerase [1] = biological target: T2, KOD DNA polymerase (Thermococcus kodakarensis, UniProt P77933, DEL407-766/DEL853-1389); assay: DNA elongation by KOD DNA polymerase on primed M13 mp18 DNA (Examples 3-10, 3-11); format: biochemical, Thermococcus kodakaraensis KOD1; details: for elongation (size of synthesized DNA): 75° C.
Protocol: 150 fmol of KOD DNA polymerase was reacted with 1.5 pmol of DNA obtained by annealing an M13 P7 primer (SEQ ID NO:59) to M13 mp18 DNA (circular single-stranded DNA) to determine processivity. 450 fmol, 1.5 pmol, 4.5 pmol and 15 pmol samples of KOD-PCNA obtained in Example 3-6 were added to reaction buffer solutions [20 mM Tris-HCl (pH 7.5 at 75° C.), 10 mM KCl, 6 mM (NH4)2SO4, 2 mM MgCl2, 0.1% Triton X-100, 10 μg/ml BSA]. The mixtures were reacted at 75° C. for varying times: 30 seconds, 60 seconds and 120 seconds, to investigate their degrees of elongation. In the course of the elongation reaction DNA samples were withdrawn at the above reaction times and added to the same quantity of a stop solution (60 mM EDTA, […], 0.1% BPB, 30% glycerol). The obtained DNA samples were separated by 1% alkaline agarose electrophoresis and analyzed to determine the sizes of the synthesized DNA.
KOD DNA polymerase reactions were conducted in a similar manner to Example 3-10 either in the presence of KOD-PCNA or in the copresence of KOD-PCNA and KOD-RFC by using an circular single stranded DNA, which was annealed with a primer, as a substrate. […] This is presumably because almost all the KOD DNA polymerase molecules were available to react with PCNA in the presence of the RFC complex.

pMol 21 = details: PCR product fidelity, rpsL / pMol 21 method; cited from earlier work
KOD DNA polymerase [2] = biological target: T2, KOD DNA polymerase; assay: PCR of 3.6 kb globin cluster DNA using KOD DNA polymerase with PCNA/RFC (Examples 3-12 to 3-14); format: biochemical, Thermococcus kodakaraensis KOD1
Protocol: The effect produced by the addition of KOD-PCNA protein on PCR amplification of a 3.6 kb DNA in a human […] cluster was investigated. The PCR buffer supplied with KOD-Plus (TOYOBO CO.,LTD), 0.2 mM dNTPs and 0.3 μM of a pair of primers of SEQ ID Nos:60 and 61 were used. 1 U KOD DNA polymerase was used as a heat-resistant DNA polymerase, and genomic DNA derived from human cell line K562 was used as a template. This reaction mixture was subjected to PCR using GeneAmp2400 (PE Applied Biosystems) to investigate the difference in the PCR results caused by the presence or absence of PCNA. The PCR conditions were as follows: 1 preliminary reaction of 94° C. for 2 minutes; and then 35 cycles of 94° C. for 20 seconds, 60° C. for 30 seconds and 68° C. for 4 minutes.
The effect produced by the addition of the KOD-RFC complex was investigated with the same target DNA and reaction solution as in Example 3-12. The amount of RFC effective for PCR was investigate by using 1 ng of genomic DNA derived from human cell line K562 as a template.
The effect produced by the addition of KOD-PCNA protein and KOD-RFC complex was investigated with the same target DNA and reaction solution as in Example 3-12. 1 ng of genomic DNA derived from human cell line K562 was used as a template and their optimal ratios were investigated.

KOD Dash DNA polymerase = assay: PCR using mixed-type KOD Dash DNA polymerase with PCNA/RFC (Example 3-15); format: biochemical, Thermococcus kodakaraensis KOD1; details: 1 ng template, FIG. 34
Protocol: The effect produced by the combined use of KOD-PCNA protein and the KOD-RFC complex in PCR using a mixture of two kinds of DNA polymerases was investigated with the same target DNA and reaction solution as in Example 3-12
1 ng of genomic DNA derived from human cell line K562 was used as a template. KOD Dash DNA polymerase, which is a mixture of KOD DNA polymerase and KOD (exo-) DNA polymerase which has lost KOD 3′-5′ exonuclease activity, was used as the mixed-type DNA polymerase.

[3] = PCNA added in 30 times the molar amount of DNA polymerase

C[S+](C)[O-] [DMSO, dimethylsulfoxide]
amplification of target DNA (KOD-plus DNA polymerase; 5% DMSO): sufficient amplification was observed | amplification of target DNA (KOD-plus DNA polymerase; in the presence of DMSO, cDNA template): an increase in amplification amount was observed

B1: KOD DNA polymerase: Thermococcus kodakaraensis KOD1-derived thermostable α-type DNA polymerase, SEQ ID NO: 1 (protein)
chain: MILDTDYITEDGKPVIRIFKKENGEFKIEYDRTFEPYFYALLKDDSAIEEVKKITAERHGTVVTVKRVEKVQKKFLGRPVEVWKLYFTHPQDVPAIRDKIREHPAVIDIYEYDIPFAKRYLIDKGLVPMEGDEELKMLAFDIETLYHEGEEFAEGPILMISYADEEGARVITWKNVDLPYVDVVSTEREMIKRFLRVVKEKDPDVLITYNGDNFDFAYLKKRCEKLGINFALGRDGSEPKIQRMGDRFAVEVKGRIHFDLYPVIRRTINLPTYTLEAVYEAVFGQPKEKVYAEEITTAWETGENLERVARYSMEDAKVTYELGKEFLPMEAQLSRLIGQSLWDVSRSSTGNLVEWFLLRKAYERNELAPNKPDEKELARRRQSYEGGYVKEPERGLWENIVYLDFRSLYPSIIITHNVSPDTLNREGCKEYDVAPQVGHRFCKDFPGFIPSLLGDLLEERQKIKKKMKATIDPIERKLLDYRQRAIKILANSYYGYYGYARARWYCKECAESVTAWGREYITMTIKEIEEKYGFKVIYSDTDGFFATIPGADAETVKKKAMEFLKYINAKLPGALELEYEGFYKRGFFVTKKKYAVIDEEGKITTRGLEIVRRDWSEIAKETQARVLEALLKDGDVEKAVRIVKEVTEKLSKYEVPPEKLVIHEQITRDLKDYKATGPHVAVAKRLAARGVKIRPGTVISYIVLKGSGRIGDRAIPFDEFDPTKHKYDAEYYIENQVLPAVERILRAFGYRKEDLRYQKTRQVGLSAWLKPKGT
modifications: Thermococcus kodakaraensis KOD1; KOD DNA polymerase
processivity (KOD DNA polymerase [1]; no PCNA added): ≥ 5 kb | elongation (size of synthesized DNA) (KOD DNA polymerase [1]; no PCNA added, reaction time 30 seconds): 1.2 kb | elongation (size of synthesized DNA) (KOD DNA polymerase [1]; no PCNA added, reaction time 60 seconds): 2.5 kb | elongation (size of synthesized DNA) (KOD DNA polymerase [1]; no PCNA added, reaction time 120 seconds): 5 kb | elongation rate (KOD DNA polymerase [1]; no PCNA, 1.5 pmol substrate DNA relative to 150 fmol DNA polymerase): about 40 bases per second | mutation rate (pMol 21): ≤ 0.1%

B2: PCNA: proliferating cell nuclear antigen derived from Thermococcus kodakaraensis KOD1, SEQ ID NO: 2 (protein)
chain: MPFEVVFDGAKEFADLIATASNLIDEAAFKFTEEGISMRAMDPSRVVLIDLNLPESIFSKYEVEEPETIGINMDQFKKILKRGKAKDTLILRKGDENFLEITFEGTAKRTFRLPLIDVEELELELPELPFTAKVVLLGEVLKEGIKDASLVSDAIKFIAKENEFTMKAEGETNEVEIRLTLEDEGLLDLEVEEETKSAYGISYLSDMVKGIGKADEVILRFGNEMPLQMEYMIRDEGRLTFLLAPRVEE
modifications: Thermococcus kodakaraensis KOD1; KOD-PCNA
DNA elongation rate of KOD DNA polymerase (KOD DNA polymerase [1]; [3]): 120 bases per second | DNA elongation rate relative to the sample with no PCNA added (KOD DNA polymerase [1]; [3]): about 3 times | DNA elongation rate (KOD DNA polymerase [1]; only PCNA added, FIG. 30): an increase in the DNA elongation rate was observed | increase of DNA elongation rate compared to single use of KOD DNA polymerase (KOD DNA polymerase [1]; using KOD-PCNA): several fold | amplification of the target DNA (KOD DNA polymerase [2]; 10 fmol of PCNA alone, 1 ng template, FIG. 33): amplification of the target DNA was barely observed together with a smear | amplification of the target DNA (KOD DNA polymerase [2]; 30 fmol of PCNA, 1 ng template DNA, FIG. 31): amplification of the target DNA was observed | amplification of the target DNA (KOD DNA polymerase [2]; PCNA added, 3 ng template DNA, FIG. 31): amplification of the target DNA was more clearly observed | increase of PCR sensitivity (KOD DNA polymerase [2]; addition of PCNA): at least 3 fold | amplification of the target DNA (KOD Dash DNA polymerase; addition of PCNA): amplification of the target DNA was made somewhat clearer

B3: RFC: replication factor C complex of KOD-mRFCS and KOD-RFCL derived from KOD1 (protein)
chain 1: MSEEVKEVKILEKPWVEKYRPQRLEDIVGQDHIVKRLKHYVKTGSMPHLLFAGPPGVGKTTAALALARELFGENWRHNFLELNASDERGINVIREKVKEFARTKPIGGASFKIIFLDEADALTQDAQQALRRTMEMFSNNVRFILSCNYSSKIIEPIQSRCAIFRFRPLRDEDIAKRIRYIAENEGLELTEEGLQAILYVAEGDLRRAINVLQAAAALDTKITDENVFLVASRARPEDVREMMTLALEGNFLKAREKLRDILLRQGLSGEDVLIQMHKEVFNLPIPEDKKVALADKIGEYNFRLVEGANEMIQLEALLAQFTIMGK
chain 2: MTEVPWVEKYRPRKLSEIVNQEKALEQVRAWVEAWLHGNPPKKKALLLAGPPGVGKTTTVYALANEYGFEVIELNASDERTYEKIERYVQAAYTMDILGKRRKLIFLDEADNIEPSGAREIAKLIDKARNPIIMSANHYWEVPREIRNKAQIVEYKRLTQRDIIKALVRILKREGLEVPKEVLYEIAKRANGDLRAAVNDLQTVVTGGVEDAVEVLAYRDTEKSVFQALAQLFATDNAKRAKLAVLGVDMMPNELLQWIDENVPYVYYRPEDIARAYEALSRADIYLGRAQRTGNYGLWKYATDMMTAGVAVAGIKKKGFVKIYPPKTIKLLTESKEERSLRDSVIKKIMSEMHMAKLEAIETLRYLRVIFENNPDLAAHFVVFLDLSEKEVEFITGDKEKAKTIWAKSMNIEKKLKKEGELEARAKEAERRVEAAEEEETMEAGEPEEELEEVEEEELTEEELEEAEEEIETVGKKEKPEKEKTKKGKQATLFDFLKK
amplification of the target DNA (KOD DNA polymerase [2]; 1.5 pmol further added to 10 fmol of PCNA, 1 ng template, FIG. 33): sufficient amplification was observed | amplification of the target DNA (KOD Dash DNA polymerase; further addition of RFC to PCNA): amplification of the target DNA was greatly clarified
